Source: paper PMC6910952 (Nature Communications, 2019)

Tests used:
Assay in all cases: pull-down; GST-yNpl4 (0.5 μM, wild type or mutant) on Glutathione Sepharose 4B beads, 1 h at room temperature with 0.5 μM yUfd1, 3 μM Cdc48 (0.5 μM hexamer) and 1 μg K48 chains in 100 μL 50 mM Tris-HCl pH 7.5, 100 mM NaCl, 10% glycerol, 0.1% Triton X-100; chains detected by anti-Ub immunoblot, proteins by Ponceau S
Conditions in all cases: both partners purified
[1] = target: T1, GST-yNpl4 A494F (Saccharomyces cerevisiae, UniProt P33755 1-580, A494F)
T1 construct: Npl4 of Saccharomyces cerevisiae (yNpl4), full length; source: E. coli Rosetta (DE3) (pGEX-6P1), purified (Glutathione Sepharose FF, Resource Q); not shown: GST, N-terminal, kept
T1 sequence (looked up): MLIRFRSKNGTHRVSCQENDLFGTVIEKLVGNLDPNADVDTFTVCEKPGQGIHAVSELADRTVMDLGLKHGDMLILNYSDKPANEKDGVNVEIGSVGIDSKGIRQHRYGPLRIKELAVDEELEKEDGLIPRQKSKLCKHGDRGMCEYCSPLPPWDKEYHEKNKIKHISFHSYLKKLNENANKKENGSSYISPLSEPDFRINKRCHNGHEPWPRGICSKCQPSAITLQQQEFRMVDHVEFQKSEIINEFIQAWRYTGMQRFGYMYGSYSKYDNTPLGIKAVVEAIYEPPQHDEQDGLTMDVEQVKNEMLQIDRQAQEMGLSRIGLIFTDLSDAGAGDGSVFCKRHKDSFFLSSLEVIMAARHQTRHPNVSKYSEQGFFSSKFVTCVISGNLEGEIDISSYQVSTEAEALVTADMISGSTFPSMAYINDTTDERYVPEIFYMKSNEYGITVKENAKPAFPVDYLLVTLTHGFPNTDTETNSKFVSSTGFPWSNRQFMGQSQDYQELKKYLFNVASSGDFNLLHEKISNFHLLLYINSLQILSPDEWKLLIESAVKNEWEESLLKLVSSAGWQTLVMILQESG

[2] = target: T2, GST-yNpl4 T571A (Saccharomyces cerevisiae, UniProt P33755 1-580, T571A)
T2 construct: Npl4 of Saccharomyces cerevisiae (yNpl4), full length; source: E. coli Rosetta (DE3) (pGEX-6P1), purified (Glutathione Sepharose FF, Resource Q); not shown: GST, N-terminal, kept
T2 sequence (looked up): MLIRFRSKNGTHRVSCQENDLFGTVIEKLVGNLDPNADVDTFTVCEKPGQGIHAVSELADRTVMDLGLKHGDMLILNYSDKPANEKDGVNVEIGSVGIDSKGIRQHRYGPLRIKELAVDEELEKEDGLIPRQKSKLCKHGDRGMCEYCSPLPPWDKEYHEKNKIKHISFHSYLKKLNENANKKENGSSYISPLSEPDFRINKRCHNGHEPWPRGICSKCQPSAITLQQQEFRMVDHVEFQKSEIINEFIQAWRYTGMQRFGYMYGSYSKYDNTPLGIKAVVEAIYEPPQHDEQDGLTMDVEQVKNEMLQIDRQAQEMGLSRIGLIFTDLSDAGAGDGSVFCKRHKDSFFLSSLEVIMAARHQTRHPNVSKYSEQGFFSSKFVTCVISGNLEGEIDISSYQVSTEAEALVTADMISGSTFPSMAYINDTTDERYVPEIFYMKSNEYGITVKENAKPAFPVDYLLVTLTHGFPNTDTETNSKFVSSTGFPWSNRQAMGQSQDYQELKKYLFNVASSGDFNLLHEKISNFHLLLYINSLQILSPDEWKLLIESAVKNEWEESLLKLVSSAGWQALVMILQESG

[3] = target: T3, GST-yNpl4 S498R (Saccharomyces cerevisiae, UniProt P33755 1-580, S498R)
T3 construct: Npl4 of Saccharomyces cerevisiae (yNpl4), full length; source: E. coli Rosetta (DE3) (pGEX-6P1), purified (Glutathione Sepharose FF, Resource Q); not shown: GST, N-terminal, kept
T3 sequence (looked up): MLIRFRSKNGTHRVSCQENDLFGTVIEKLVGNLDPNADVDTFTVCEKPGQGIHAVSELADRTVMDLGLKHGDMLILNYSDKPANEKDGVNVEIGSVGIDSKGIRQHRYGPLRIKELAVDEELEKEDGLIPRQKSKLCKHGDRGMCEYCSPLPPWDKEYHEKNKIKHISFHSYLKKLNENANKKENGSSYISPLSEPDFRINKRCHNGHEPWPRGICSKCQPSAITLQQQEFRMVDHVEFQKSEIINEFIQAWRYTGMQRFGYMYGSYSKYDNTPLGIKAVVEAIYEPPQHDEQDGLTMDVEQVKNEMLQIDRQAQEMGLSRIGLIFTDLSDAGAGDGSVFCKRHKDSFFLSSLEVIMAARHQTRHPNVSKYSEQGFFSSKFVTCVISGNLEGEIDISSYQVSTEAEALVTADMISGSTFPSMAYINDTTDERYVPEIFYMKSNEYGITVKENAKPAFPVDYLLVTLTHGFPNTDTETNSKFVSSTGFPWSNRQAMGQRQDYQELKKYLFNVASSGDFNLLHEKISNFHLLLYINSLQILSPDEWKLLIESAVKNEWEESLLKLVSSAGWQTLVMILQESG

binding result [1]: binds | binding result [2]: binds | binding result [3]: binds
B1: yUfd1 (full length, untagged) (natural protein, Saccharomyces cerevisiae, UniProt P53044 1-361, looked up)
chain: MFSGFSSFGGGNGFVNMPQTFEEFFRCYPIAMMNDRIRKDDANFGGKIFLPPSALSKLSMLNIRYPMLFKLTANETGRVTHGGVLEFIAEEGRVYLPQWMMETLGIQPGSLLQISSTDVPLGQFVKLEPQSVDFLDISDPKAVLENVLRNFSTLTVDDVIEISYNGKTFKIKILEVKPESSSKSICVIETDLVTDFAPPVGYVEPDYKALKAQQDKEKKNSFGKGQVLDPSVLGQGSMSTRIDYAGIANSSRNKLSKFVGQGQNISGKAPKAEPKQDIKDMKITFDGEPAKLDLPEGQLFFGFPMVLPKEDEESAAGSKSSEQNFQGQGISLRKSNKRKTKSDHDSSKSKAPKSPEVIEID
notes: Ufd1 of Saccharomyces cerevisiae (yUfd1), full length; codon-optimized synthetic cDNA; removal of GST by HRV3C is surmised; also called untagged Ufd1; source: E. coli Rosetta (DE3) (pGEX-6P1), purified
